From article doi:10.1101/749960

Target: isolated C-terminal domain of FusB (FusBCTD) (Pectobacterium carotovorum LMG2410)
Assay: ITC

“spinach ferredoxin (FerSp) (from UniProt P00221 51-147) (natural protein)” was tested, and the Kd was 8.7 µM.
